This note sets out measurements from PMC11381335, “Unraveling the structure and function of a novel SegC protein interacting with the SegAB chromosome segregation complex in Archaea” (Nucleic Acids Research, 2024).

In experiment [1] the target is SegC labeled with Alexa488 green-fluorescent dye (Saccharolobus solfataricus). The experiment can be described thus: fluorescence polarisation; 10 nM Alexa488-labeled SegC; SegA or SegB in 2-fold serial dilution from 10 uM; room temperature, 30 min; 20 mM HEPES-NaOH pH 7.3, 100 mM NaCl, 2 mM MgCl2; concentration of protein that binds 50% of the labeled SegC. A general note: In fluorescence polarisation assays a small probe gives low polarisation when free and higher when bound to something large.
Sequence of SegC labeled with Alexa488 green-fluorescent dye (Saccharolobus solfataricus) (Q981B4 entry or part of it): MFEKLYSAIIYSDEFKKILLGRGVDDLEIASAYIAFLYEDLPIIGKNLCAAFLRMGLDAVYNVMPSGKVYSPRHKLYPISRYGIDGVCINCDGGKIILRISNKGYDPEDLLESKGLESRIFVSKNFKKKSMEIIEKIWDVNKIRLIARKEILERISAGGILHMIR

Experiment [2] has as its target T1, SegC (SSO0033) (Saccharolobus solfataricus, UniProt Q981B4).
T1 construct: full length 165 residues, C-terminal His6 (pET21b), E. coli BL21(DE3)
The experiment can be described thus: malachite green phosphate release. In kind it is biochemical. Conditions: 10 uM protein, 1 mM NTP, 2 mM MgCl2, 100 mM NaCl, pH 7.5, 37 °C, 1 h; no DNA.

The target in experiment [3] is T1, SegC (SSO0033). The experiment can be described thus: X-ray crystal structure of ATP-soaked SegC crystals. In kind it is binding. Conditions: apo crystals soaked within one minute in 20 mM ATP, 2 mM MgCl2, pH 7.5; ADP modelled at the interface of two dimers (Tyr61, Arg73).
Experiment [4] deals with SegC (SSO0033) (Saccharolobus solfataricus). The experiment can be described thus: crystal structure; SegC crystals grown in 100 mM Tris-HCl pH 8.5, 300 mM potassium thiocyanate, 20°C; 2.8 Å; also soaked with 20 mM ATP (SegC-ADP).

T1 sequence (Q981B4 entry or part of it): as above

In general, Kd refers to the constant that tells how readily two partners part at equilibrium. Higher therefore signals lower affinity. As to SegA (natural protein), in experiment [1], the Kd turned out to be 1800 nM.
Consider `Nc1ccn([C@@H]2O[C@H](COP(=O)(O)OP(=O)(O)OP(=O)(O)O)[C@@H](O)[C@H]2O)c(=O)n1` [CTP], for which, on SegC (SSO0033) [2], the “malachite green phosphate release” value is “SegC exhibited catalytic activity against all of the tested NTPs with no apparent preference”.
As to `Nc1ncnc2c1ncn2[C@@H]1O[C@H](COP(=O)(O)OP(=O)(O)O)[C@@H](O)[C@H]1O` [ADP], the “X-ray crystal structure of ATP-soaked SegC crystals” value at SegC (SSO0033) [3] was “In this SegC-ADP complex structure, two residues (Tyr61 and Arg73) were found to interact”.
Turning to SegB (natural protein), in experiment [1], the equilibrium dissociation constant (Kd) stood at 1400 nM.
A word on the stoichiometry N: it is the number of molecules, sites or subunits per partner or assembly. In experiment [4], SegC (SSO0033) (natural protein) gave a stoichiometry N of 4.
